# Results published in patent US20210395318A1 (Molecular Partners, published 2021).
# Tests used:
# Experiment in all cases: cell-based or functional assay
# [1] = target: T1, human CD40 on primary human B cells or human monocyte-derived dendritic cells (human, UniProt P25942 21-277)
# [2] = target: T1, human CD40 on primary human B cells or …; remark: listed apart in the source
# [3] = target: T1, human CD40 on primary human B cells or …; remark: listed apart in the source
# T1 sequence (P25942 21-277 H80K/K81H limits assumed): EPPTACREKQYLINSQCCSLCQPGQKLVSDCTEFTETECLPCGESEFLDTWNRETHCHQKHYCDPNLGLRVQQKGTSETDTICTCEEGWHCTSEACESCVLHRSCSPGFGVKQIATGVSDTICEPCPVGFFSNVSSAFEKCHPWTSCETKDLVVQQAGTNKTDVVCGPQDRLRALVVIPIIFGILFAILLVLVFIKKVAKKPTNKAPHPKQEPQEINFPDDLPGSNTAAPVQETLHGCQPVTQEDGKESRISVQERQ
Binder,"Efficacy [MFI at highest dose], MFI CD86, human B cells with WT-CHO cells (no FAP), w HSA [1] [MFI]","Efficacy [MFI at highest dose], MFI CD86, human B cells with WT-CHO cells (no FAP), w/o HSA [1] [MFI]","Efficacy at highest dose, % CD86, human B cells with WT-CHO cells (no FAP), w HSA [1] [%]","Efficacy at highest dose, % CD86, human B cells with WT-CHO cells (no FAP), w/o HSA [1] [%]","EC50, % CD86, human B cells with FAP-CHO cells, w HSA [2] [nM]","EC50, % CD86, human B cells with FAP-CHO cells, w/o HSA [2] [nM]","EC50, MFI CD86, human B cells with FAP-CHO cells, w HSA [2] [nM]","EC50, MFI CD86, human B cells with FAP-CHO cells, w/o HSA [2] [nM]","Efficacy [MFI at highest dose], MFI CD86, human B cells with FAP-CHO cells, w HSA [3] [MFI]","Efficacy [MFI at highest dose], MFI CD86, human B cells with FAP-CHO cells, w/o HSA [3] [MFI]","Efficacy at highest dose, % CD86, human B cells with FAP-CHO cells, w HSA [3] [%]","Efficacy at highest dose, % CD86, human B cells with FAP-CHO cells, w/o HSA [3] [%]"
SMA014 (designed binder) MRGSHHHHHHGSDLGEKLLVAALYGQDDEVRELLKAGADVNAKDQWGLTPLHKAALQGHLEIVEVLLKAGADVNAKDERGHTPLHWAARFGHLEIVEVLLKAGADVNAQDQKGYTPADLAALWGHEDIAEVLQKAAGSPTPTPTTPTPTPTTPTPTPTGSDLGKKLLQAARAGQLDEVRELLKAGADVNAKDTWGFTPLHIAAESGHLEIVEVLLKAGADVNAKDVQGRTPLHIAAHSGHLEIVEVLLKAGADVNAKDFRGWTPLHLAAWSGHLEIVEILLKAGADVNAQDKSGKTPADLAARAGHQDIAEVLQKAA,310,294,13.3,13.2,6.15,4.21,7.7,8.46,2190,2440,47,48.4
SMA095 (designed binder) MRGSHHHHHHGSDLGKKLLEAARAGQDDEVRELLKAGADVNAKDYFSHTPLHLAARNGHLKIVEVLLKAGADVNAKDFAGKTPLHLAAADGHLEIVEVLLKAGADVNAQDIFGKTPADIAADAGHEDIAEVLQKAAGSPTPTPTTPTPTPTTPTPTPTGSDLGEKLLVAALYGQDDEVRELLKAGADVNAKDQWGLTPLHKAALQGHLEIVEVLLKAGADVNAKDERGHTPLHWAARFGHLEIVEVLLKAGADVNAQDQKGYTPADLAALWGHEDIAEVLQKAAGSPTPTPTTPTPTPTTPTPTPTGSDLGKKLLQAARAGQLDEVRELLKAGADVNAKDTWGFTPLHIAAESGHLEIVEVLLKAGADVNAKDVQGRTPLHIAAHSGHLEIVEVLLKAGADVNAKDFRGWTPLHLAAWSGHLEIVEILLKAGADVNAQDKSGKTPADLAARAGHQDIAEVLQKAAGSPTPTPTTPTPTPTTPTPTPTGSDLGKKLLEAARAGQDDEVRELLKAGADVNAKDYFSHTPLHLAARNGHLKIVEVLLKAGADVNAKDFAGKTPLHLAAADGHLEIVEVLLKAGADVNAQDIFGKTPADIAADAGHEDIAEVLQKAA,306,299,13.7,12.5,,89.8,,288,232,773,,28.7
AS579 (designed binder) MRGSHHHHHHGSDLGKKLLEAARAGQDDEVRELLKAGADVNAKDYFSHTPLHLAARNGHLKIVEVLLKAGADVNAKDFAGKTPLHLAAADGHLEIVEVLLKAGADVNAQDIFGKTPADIAADAGHEDIAEVLQKAAGSPTPTPTTPTPTPTTPTPTPTGSDLGKKLLEAARAGQDDEVRELLKAGADVNAKDYFSHTPLHLAARNGHLKIVEVLLKAGADVNAKDFAGKTPLHLAAADGHLEIVEVLLKAGADVNAQDIFGKTPADIAADAGHEDIAEVLQKAAGSPTPTPTTPTPTPTTPTPTPTGSDLGEKLLVAALYGQDDEVRELLKAGADVNAKDQWGLTPLHKAALQGHLEIVEVLLKAGADVNAKDERGHTPLHWAARFGHLEIVEVLLKAGADVNAQDQKGYTPADLAALWGHEDIAEVLQKAAGSPTPTPTTPTPTPTTPTPTPTGSDLGKKLLQAARAGQLDEVRELLKAGADVNAKDTWGFTPLHIAAESGHLEIVEVLLKAGADVNAKDVQGRTPLHIAAHSGHLEIVEVLLKAGADVNAKDFRGWTPLHLAAWSGHLEIVEILLKAGADVNAQDKSGKTPADLAARAGHQDIAEVLQKAAGSPTPTPTTPTPTPTTPTPTPTGSDLGKKLLQAARAGQLDEVRELLKAGADVNAKDTWGFTPLHIAAESGHLEIVEVLLKAGADVNAKDVQGRTPLHIAAHSGHLEIVEVLLKAGADVNAKDFRGWTPLHLAAWSGHLEIVEILLKAGADVNAQDKSGKTPADLAARAGHQDIAEVLQKAA,242,252,40.1,42,10.2,2.27,23.1,10,1780,4860,71.9,83
SMA091 (designed binder) MRGSHHHHHHGSDLGKKLLEAARAGQDDEVRELLKAGADVNAKDYFSHTPLHLAARNGHLKIVEVLLKAGADVNAKDFAGKTPLHLAAADGHLEIVEVLLKAGADVNAQDIFGKTPADIAADAGHEDIAEVLQKAAGSPTPTPTTPTPTPTTPTPTPTGSDLGEKLLVAALYGQDDEVRELLKAGADVNAKDQWGLTPLHKAALQGHLEIVEVLLKAGADVNAKDERGHTPLHWAARFGHLEIVEVLLKAGADVNAQDQKGYTPADLAALWGHEDIAEVLQKAAGSPTPTPTTPTPTPTTPTPTPTGSDLGKKLLQAARAGQLDEVRELLKAGADVNAKDTWGFTPLHIAAESGHLEIVEVLLKAGADVNAKDVQGRTPLHIAAHSGHLEIVEVLLKAGADVNAKDFRGWTPLHLAAWSGHLEIVEILLKAGADVNAQDKSGKTPADLAARAGHQDIAEVLQKAAGSPTPTPTTPTPTPTTPTPTPTGSDLGKKLLQAARAGQLDEVRELLKAGADVNAKDTWGFTPLHIAAESGHLEIVEVLLKAGADVNAKDVQGRTPLHIAAHSGHLEIVEVLLKAGADVNAKDFRGWTPLHLAAWSGHLEIVEILLKAGADVNAQDKSGKTPADLAARAGHQDIAEVLQKAA,296,290,43.1,47.8,2.98,0.76,8.05,3.93,2980,6230,75.6,78.2
SMA099 (designed binder) MRGSHHHHHHGSDLGKKLLEAARAGQDDEVRELLKAGADVNAKDYFSHTPLHLAARNGHLKIVEVLLKAGADVNAKDFAGKTPLHLAAADGHLEIVEVLLKAGADVNAQDIFGKTPADIAADAGHEDIAEVLQKAAGSPTPTPTTPTPTPTTPTPTPTGSDLGEKLLVAALYGQDDEVRELLKAGADVNAKDQWGLTPLHKAALQGHLEIVEVLLKAGADVNAKDERGHTPLHWAARFGHLEIVEVLLKAGADVNAQDQKGYTPADLAALWGHEDIAEVLQKAAGSPTPTPTTPTPTPTTPTPTPTGSDLGKKLLQAARAGQLDEVRELLKAGADVNAKDTWGFTPLHIAAESGHLEIVEVLLKAGADVNAKDVQGRTPLHIAAHSGHLEIVEVLLKAGADVNAKDFRGWTPLHLAAWSGHLEIVEILLKAGADVNAQDKSGKTPADLAARAGHQDIAEVLQKAAGSPTPTPTTPTPTPTTPTPTPTGSDLGKKLLQAARAGQLDEVRELLKAGADVNAKDTWGFTPLHIAAESGHLEIVEVLLKAGADVNAKDVQGRTPLHIAAHSGHLEIVEVLLKAGADVNAKDFRGWTPLHLAAWSGHLEIVEILLKAGADVNAQDKSGKTPADLAARAGHQDIAEVLQKAAGSPTPTPTTPTPTPTTPTPTPTGSDLGKKLLEAARAGQDDEVRELLKAGADVNAKDYFSHTPLHLAARNGHLKIVEVLLKAGADVNAKDFAGKTPLHLAAADGHLEIVEVLLKAGADVNAQDIFGKTPADIAADAGHEDIAEVLQKAA,274,289,42.5,47.4,7.5,4.68,19.4,18.2,1720,4950,71.7,84.4
SMA105 (designed binder) MRGSHHHHHHGSDLGEKLLVAALYGQDDEVRELLKAGADVNAKDQWGLTPLHKAALQGHLEIVEVLLKAGADVNAKDERGHTPLHWAARFGHLEIVEVLLKAGADVNAQDQKGYTPADLAALWGHEDIAEVLQKAAGSPTPTPTTPTPTPTTPTPTPTGSDLGKKLLQAARAGQLDEVRELLKAGADVNAKDTWGFTPLHIAAESGHLEIVEVLLKAGADVNAKDVQGRTPLHIAAHSGHLEIVEVLLKAGADVNAKDFRGWTPLHLAAWSGHLEIVEILLKAGADVNAQDKSGKTPADLAARAGHQDIAEVLQKAAGSPTPTPTTPTPTPTTPTPTPTGSDLGKKLLQAARAGQLDEVRELLKAGADVNAKDTWGFTPLHIAAESGHLEIVEVLLKAGADVNAKDVQGRTPLHIAAHSGHLEIVEVLLKAGADVNAKDFRGWTPLHLAAWSGHLEIVEILLKAGADVNAQDKSGKTPADLAARAGHQDIAEVLQKAAGSPTPTPTTPTPTPTTPTPTPTGSDLGKKLLQAARAGQLDEVRELLKAGADVNAKDTWGFTPLHIAAESGHLEIVEVLLKAGADVNAKDVQGRTPLHIAAHSGHLEIVEVLLKAGADVNAKDFRGWTPLHLAAWSGHLEIVEILLKAGADVNAQDKSGKTPADLAARAGHQDIAEVLQKAA,,672,,69.2,,0.11,,0.33,,5560,,87.2
